From paper PMC5030251, “Metal-Induced Stabilization and Activation of Plasmid Replication Initiator RepB” (Frontiers in Molecular Biosciences, 2016)

Molecular target: the molecule itself
Experiment: AUC; sedimentation equilibrium; RepB6 samples heated to temperatures from 25°C up to 45°C (end of the first thermal transition)

B1: RepB, replication initiator protein of the streptococcal plasmid pMV158 (enzyme, UniProt P13921 1-210, looked up)
chain: MAKEKARYFTFLLYPESIPSDWELKLETLGVPMAISPLHDKDKSSIKGQKYKKAHYHVLYIAKNPVTADSVRKKIKLLLGEKSLAMVQVVLNVENMYLYLTHESKDAIAKKKHVYDKADIKLINNFDIDRYVTLDVEEKTELFNVVVSLIRAYTLQNIFDLYDFIDENGETYGLTINLVNEVIAGKTGFMKLLFDGAYQRSKRGTKNEER
notes: RepB, replication initiator (Rep) protein encoded by plasmid pMV158; 210 amino acid polypeptide purified as a hexamer; In assay a2 the protein had been heated beyond its first, irreversible thermal transition (OBD denatured); also called RepB6; full-length hexameric RepB; source: purified as described previously (Ruiz-Masó et al., 2004; Boer et al., 2009)
- stoichiometry N: ~6
